Consider four molecules from publication PMC11917138, “A naturally occurring standalone TrpB enzyme provides insights into allosteric communication within tryptophan synthase” (Protein Science : A Publication of the Protein Society, 2025).

In data set [1] the target is plTrpB, tryptophan synthase β subunit (TrpB) from Pelodictyon luteolum (Pelodictyon luteolum).
Data set [2] has as its target plTrpB‐con, plTrpB with the six LBCA-Res6 residues replaced by consensus residues (Pelodictyon luteolum).
The target of data set [3] is plTrpB, tryptophan synthase β subunit (TrpB) from Pelodictyon luteolum (Pelodictyon luteolum). The source holds these as a separate data set.
Data set [4] has as its target plTrpB‐con, plTrpB with the six LBCA-Res6 residues replaced by consensus residues (Pelodictyon luteolum). This is another data set of the same source.
For data set [5], the target named is plTrpB, tryptophan synthase β subunit (TrpB) from Pelodictyon luteolum (Pelodictyon luteolum). Description: activity titration; apparent Kd; varying plTrpA added to 2 μM plTrpB or plTrpB-con, TrpB reaction rate read at 290 nm; 30°C, 50 mM potassium phosphate pH 7.5, 180 mM KCl, 40 μM PLP, 75 mM L-serine, 1 mM indole; hyperbolic fit; duplicates.
For data set [6], the target named is plTrpB‐con, plTrpB with the six LBCA-Res6 residues replaced by consensus residues (Pelodictyon luteolum). Described as above.
The target of data set [7] is plTrpB, tryptophan synthase β subunit (TrpB) from Pelodictyon luteolum (Pelodictyon luteolum). Description: SEC; analytical SEC, Superdex200 increase 10/300 GL; plTrpA 75 μM, plTrpB or plTrpB-con 50 μM, alone or mixed; 50 mM potassium phosphate pH 7.5, 300 mM KCl, 75 mM L-serine, 25°C.
Substrate in the data set “purified protein”: c1ccc2[nH]ccc2c1
The data set is described as follows: purified protein. The class given is biochemical, Pelodictyon luteolum. As to conditions: saturating L-serine, 50 mM potassium phosphate pH 7.5, 180 mM KCl, 40 μM PLP, 30°C.

[8] abbreviates: 1.5-fold molar excess of plTrpA.

Take “plTrpA, tryptophan synthase α subunit (TrpA) from Pelodictyon luteolum (from UniProt A0A1G7SSP5 1-275) (enzyme)”: the k cat of the TrpB reaction of plTrpB with a 1.5-fold molar excess of plTrpA, 30°C in data set [1] was determined as 0.93 s⁻¹. The k cat of the TrpB reaction of plTrpB-con with a 1.5-fold molar excess of plTrpA, 30°C in data set [2] stood at 0.21 s⁻¹. In data set [3], the fold activation of k cat of plTrpB by plTrpA came out at 2.7 fold, the fold activation of k cat/K M ^Ind of plTrpB by plTrpA came out at 1.6 fold and the fold activation of k cat/K M ^Ser of plTrpB by plTrpA stood at 9.8 fold. In data set [4], the fold activation of k cat of plTrpB-con by plTrpA was 23 fold, the fold activation of k cat/K M ^Ind of plTrpB-con by plTrpA was determined as 3.6 fold and the fold activation of k cat/K M ^Ser of plTrpB-con by plTrpA was more than 10000 fold. For the same molecule, the Kd in data set [5] is 8.5 µM. Besides, the Kd in data set [6] turned out to be 9.9 µM.
“plTrpB, tryptophan synthase β subunit (TrpB) from Pelodictyon luteolum (from UniProt A0A1G7SST0 1-406) (enzyme)”: the stoichiometry N in data set [7] was 2.

B1: plTrpB (Pelodictyon luteolum DSM 273) (protein)
chain: MSTTAYSAPDSAGKFGAFGGRFTPETLMQNAAGLEAEYLKAKSDPEFQRTLEGLLGDYVGRPTPLYHAEGLSGMLGGAEVWLKREDLCHTGAHKINNALGQVLLARRMGKRRVIAETGAGQHGVATATVCALFNLQCVVYMGEEDIRRQAPNVARMKLLGAEVRPVSSGSRTLKDATSEAIRDWMNNPEETFYIIGSVVGMHPYPMIVRDFQAVIGRETRRQILDKAGRLPDVITACIGGGSNAVGMFYDFLPDAGSIELIGVEAAGEGLDRRHAASLTMGSPGVLHGAMTMLLQNEDGQIQEAHSISAGLDYPGVGPEHCHLQELGLVKYTSVTDADALSALRTLAETEGIICALESAHAVRYAITRAPEMAKDKIIIVNLSGRGDKDMGTIMEELNL
notes: full-length, C-terminal His6-tag kept, codon-optimized gene in pET21a, E. coli BL21 Gold (DE3); beta-beta dimer
With B1, in the data set “purified protein” (no plTrpA), the Km worked out at 39 ± 7 µM, the catalytic constant (kcat) worked out at 0.35 ± 0.02 s⁻¹ and the specificity constant (kcat/Km) stood at 8970 ± 1720 M⁻¹ s⁻¹.

B2: plTrpA:plTrpB (Pelodictyon luteolum DSM 273) (protein)
chain: MSTTAYSAPDSAGKFGAFGGRFTPETLMQNAAGLEAEYLKAKSDPEFQRTLEGLLGDYVGRPTPLYHAEGLSGMLGGAEVWLKREDLCHTGAHKINNALGQVLLARRMGKRRVIAETGAGQHGVATATVCALFNLQCVVYMGEEDIRRQAPNVARMKLLGAEVRPVSSGSRTLKDATSEAIRDWMNNPEETFYIIGSVVGMHPYPMIVRDFQAVIGRETRRQILDKAGRLPDVITACIGGGSNAVGMFYDFLPDAGSIELIGVEAAGEGLDRRHAASLTMGSPGVLHGAMTMLLQNEDGQIQEAHSISAGLDYPGVGPEHCHLQELGLVKYTSVTDADALSALRTLAETEGIICALESAHAVRYAITRAPEMAKDKIIIVNLSGRGDKDMGTIMEELNL
notes: both full-length with C-terminal His6-tag, E. coli BL21 Gold (DE3); alpha-beta-beta-alpha complex, partly formed; with Tryptophan synthase alpha chain
For the molecule B2, in the data set “purified protein” (setting [8]), the Km turned out to be 65 ± 7 µM, the turnover number (kcat) was 0.93 ± 0.21 s⁻¹ and the specificity constant (kcat/Km) was determined as 14300 ± 3510 M⁻¹ s⁻¹.
